± gives the standard deviation of the averaged measurements.
Key:
[1] = tested on: MCF7; test: percentage of EdU-negative (G0-arrested) nuclei per well, 72 h; higher = more G0 arrest; conditions: reference: sequence is the full UniProt precursor, the tested protein was the secreted form or ectodomain
[2] = tested on: hTERT-HMEC; test: as above; conditions: reference: sequence is the full UniProt precursor, the tested protein was the secreted form or ectodomain
[3] = protein concentration 0.0225 µM
[4] = protein concentration 0.03125 µM
[5] = protein concentration 0.3125 µM
[6] = protein concentration 0.018845 µM
[7] = protein concentration 0.18845 µM
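Also: secreted proteins added to cultured cells, EdU pulse at the end, nuclei found by Hoechst imaging, EdU status from nuclear versus surrounding ring intensity ratio, PBS as neutral control.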

MKENYCLQAALVCLGMLCHSHAFAPERRGHLRPSFHGHHEKGKEGQVLQRSKRGWVWNQFFVIEEYTGPDPVLVGRLHSDIDSGDGNIKYILSGEGAGTIFVIDDKSGNIHATKTLDREERAQYTLMAQAVDRDTNRPLEPPSEFIVKVQDINDNPPEFLHETYHANVPERSNVGTSVIQVTASDADDPTYGNSAKLVYSILEGQPYFSVEAQTGIIRTALPNMDREAKEEYHVVIQAKDMGGHMGGLSGTTKVTITLTDVNDNPPKFPQSVYQMSVSEAAVPGEEVGRVKAKDPDIGENGLVTYNIVDGDGMESFEITTDYETQEGVIKLKKPVDFETKRAYSLKVEAANVHIDPKFISNGPFKDTVTVKISVEDADEPPMFLAPSYIHEVQENAAAGTVVGRVHAKDPDAANSPIRYSIDRHTDLDRFFTINPEDGFIKTTKPLDREETAWLNITVFAAEIHNRHQEAKVPVAIRVLDVNDNAPKFAAPYEGFICESDQTKPLSNQPIVTISADDKDDTANGPRFIFSLPPEIIHNPNFTVRDNRDNTAGVYARRGGFSRQKQDLYLLPIVISDGGIPPMSSTNTLTIKVCGCDVNGALLSCNAEAYILNAGLSTGALIAILACIVILLVIVVLFVTLRRQKKEPLIVFEEEDVRENIITYDDEGGGEEDTEAFDIATLQNPDGINGFIPRKDIKPEYQYMPRPGLRPAPNSVDVDDFINTRIQEADNDPTAPPYDSIQIYGYEGRGSVAGSLSSLESATTDSDLDYDYLQNWGPRFKKLADLYGSKDTFDDDS
percentage of EdU-negative [1, 3]: 25.4 ± 0.51%
percentage of EdU-negative ([1]; protein concentration 0.225 µM): 32.3 ± 2%
percentage of EdU-negative [2, 3]: 5.18 ± 0.56%
percentage of EdU-negative ([2]; protein concentration 0.225 µM): 9.88 ± 1.5%

MELRARGWWLLCAAAALVACARGDPASKSRSCGEVRQIYGAKGFSLSDVPQAEISGEHLRICPQGYTCCTSEMEENLANRSHAELETALRDSSRVLQAMLATQLRSFDDHFQHLLNDSERTLQATFPGAFGELYTQNARAFRDLYSELRLYYRGANLHLEETLAEFWARLLERLFKQLHPQLLLPDDYLDCLGKQAEALRPFGEAPRELRLRATRAFVAARSFVQGLGVASDVVRKVAQVPLGPECSRAVMKLVYCAHCLGVPGARPCPDYCRNVLKGCLANQADLDAEWRNLLDSMVLITDKFWGTSGVESVIGSVHTWLAEAINALQDNRDTLTAKVIQGCGNPKVNPQGPGPEEKRRRGKLAPRERPPSGTLEKLVSEAKAQLRDVQDFWISLPGTLCSEKMALSTASDDRCWNGMARGRYLPEVMGDGLANQINNPEVEVDITKPDMTIRQQIMQLKIMTNRLRSAYNGNDVDFQDASDDGSGSGSGDGCLDDLCSRKVSRKSSSSRTPLTHALPGLSEQEGQKTSAASCPQPPTFLLPLLLFLALTVARPRWR
percentage of EdU-negative [1, 4]: 27.5 ± 0.42%
percentage of EdU-negative [1, 5]: 28.9 ± 2.8%
percentage of EdU-negative [2, 4]: 4.85 ± 0.34%
percentage of EdU-negative [2, 5]: 28.7 ± 1.6%

MMCPLWRLLIFLGLLALPLAPHKQPWPGLAQAHRDNKSTLARIIAQGLIKHNAESRIQNIHFGDRLNASAQVAPGLVGWLISGRKHQQQQESSINITNIQLDCGGIQISFHKEWFSANISLEFDLELRPSFDNNIVKMCAHMSIVVEFWLEKDEFGRRDLVIGKCDAEPSSVHVAILTEAIPPKMNQFLYNLKENLQKVLPHMVESQVCPLIGEILGQLDVKLLKSLIEQEAAHEPTHHETSQPSACQAGESPS [Q9BQP9]
percentage of EdU-negative [1, 3]: 25.2 ± 1.2%
percentage of EdU-negative ([1]; protein concentration 0.225 µM): 26.8 ± 0.78%
percentage of EdU-negative [2, 3]: 4.7 ± 0.18%
percentage of EdU-negative ([2]; protein concentration 0.225 µM): 12.1 ± 1.2%

MPGIKRILTVTILALCLPSPGNAQAQCTNGFDLDRQSGQCLDIDECRTIPEACRGDMMCVNQNGGYLCIPRTNPVYRGPYSNPYSTPYSGPYPAAAPPLSAPNYPTISRPLICRFGYQMDESNQCVDVDECATDSHQCNPTQICINTEGGYTCSCTDGYWLLEGQCLDIDECRYGYCQQLCANVPGSYSCTCNPGFTLNEDGRSCQDVNECATENPCVQTCVNTYGSFICRCDPGYELEEDGVHCSDMDECSFSEFLCQHECVNQPGTYFCSCPPGYILLDDNRSCQDINECEHRNHTCNLQQTCYNLQGGFKCIDPIRCEEPYLRISDNRCMCPAENPGCRDQPFTILYRDMDVVSGRSVPADIFQMQATTRYPGAYYIFQIKSGNEGREFYMRQTGPISATLVMTRPIKGPREIQLDLEMITVNTVINFRGSSVIRLRIYVSQYPF [Q9UBX5]
percentage of EdU-negative [1, 4]: 27.1 ± 1%
percentage of EdU-negative [1, 5]: 26.6 ± 2%
percentage of EdU-negative [2, 4]: 4.99 ± 0.79%
percentage of EdU-negative [2, 5]: 6.25 ± 1.1%

MRGAARAAWGRAGQPWPRPPAPGPPPPPLPLLLLLLAGLLGGAGAQYSSDRCSWKGSGLTHEAHRKEVEQVYLRCAAGAVEWMYPTGALIVNLRPNTFSPARHLTVCIRSFTDSSGANIYLEKTGELRLLVPDGDGRPGRVQCFGLEQGGLFVEATPQQDIGRRTTGFQYELVRRHRASDLHELSAPCRPCSDTEVLLAVCTSDFAVRGSIQQVTHEPERQDSAIHLRVSRLYRQKSRVFEPVPEGDGHWQGRVRTLLECGVRPGHGDFLFTGHMHFGEARLGCAPRFKDFQRMYRDAQERGLNPCEVGTD [Q641Q3]
percentage of EdU-negative [1, 6]: 26.1 ± 2.3%
percentage of EdU-negative [1, 7]: 35.6 ± 1.1%
percentage of EdU-negative [2, 6]: 5.45 ± 1.1%
percentage of EdU-negative [2, 7]: 18.2 ± 6%

MEQWDHFHNQQEDTDSCSESVKFDARSMTALLPPNPKNSPSLQEKLKSFKAALIALYLLVFAVLIPLIGIVAAQLLKWETKNCSVSSTNANDITQSLTGKGNDSEEEMRFQEVFMEHMSNMEKRIQHILDMEANLMDTEHFQNFSMTTDQRFNDILLQLSTLFSSVQGHGNAIDEISKSLISLNTTLLDLQLNIENLNGKIQENTFKQQEEISKLEERVYNVSAEIMAMKEEQVHLEQEIKGEVKVLNNITNDLRLKDWEHSQTLRNITLIQGPPGPPGEKGDRGPTGESGPRGFPGPIGPPGLKGDRGAIGFPGSRGLPGYAGRPGNSGPKGQKGEKGSGNTLTPFTKVRLVGGSGPHEGRVEILHSGQWGTICDDRWEVRVGQVVCRSLGYPGVQAVHKAAHFGQGTGPIWLNEVFCFGRESSIEECKIRQWGTRACSHSEDAGVTCTL
percentage of EdU-negative [1, 3]: 27.3 ± 1.6%
percentage of EdU-negative ([1]; protein concentration 0.225 µM): 25.4 ± 1.7%
percentage of EdU-negative [2, 3]: 5.16 ± 0.032%
percentage of EdU-negative ([2]; protein concentration 0.225 µM): 5.23 ± 1.7%

MGLIWLLLLSLLEPGWPAAGPGARLRRDAGGRGGVYEHLGGAPRRRKLYCATKYHLQLHPSGRVNGSLENSAYSILEITAVEVGIVAIRGLFSGRYLAMNKRGRLYASEHYSAECEFVERIHELGYNTYASRLYRTVSSTPGARRQPSAERLWYVSVNGKGRPRRGFKTRRTQKSSLFLPRVLDHRDHEMVRQLQSGLPRPPGKGVQPRRRRQKQSPDNLEPSHVQASRLGSQLEASAH
percentage of EdU-negative ([1]; protein concentration 0.01 µM): 26.1 ± 0.46%
percentage of EdU-negative ([1]; protein concentration 0.1 µM): 27.4 ± 0.42%
percentage of EdU-negative ([2]; protein concentration 0.01 µM): 5.1 ± 0.81%
percentage of EdU-negative ([2]; protein concentration 0.1 µM): 6.93 ± 0.14%
